This note sets out measurements from patent US20250295799A1 (Zymeworks, published 2025).

In assay [1] the target is T1, recombinant cynomolgus GPC3 (glypican-3) (cynomolgus monkey, UniProt A0A2K5VK50 24-558).
T1 construct: also called cynoGPC3
In words: SPR; Kd on human GPC3 divided by Kd on cynomolgus GPC3.
Experimental: (§1) CM5 Series S sensor chip, Biacore™ amine coupling kit (NHS, EDC and 1 M ethanolamine), and 10 mM sodium acetate buffers were purchased from Cytiva Life Sciences (Mississauga, ON, Canada). PBS running buffer with 0.05% Tween20 (PBST) was purchased from Teknova Inc. (Hollister, CA). Antigens: recombinant human and cynomolgus GPC3 was purchased from ACROBiosystems (Newark, DE) and SEC purified on a Superdex 200 10/300 GL column (Cytiva) in PBST running buffer at 0.8 mL/min.
(§2) Screening of the antibodies for binding to GPC3 antigen was conducted via anti-Fc capture of antibodies, followed by the injection of five concentrations of GPC3. The anti-Fc surface was prepared on a CM5 Series S sensor chip by standard amine coupling methods as described by the manufacturer (Cytiva Life Sciences, Mississauga, ON, Canada). […] Approximately 150-400 RUs of each antibody (5-20 μg/mL) were captured on the goat anti-human IgG surface by injecting at 10 μL/min for 60s. Using single-cycle kinetics, five concentrations of a two-fold dilution series of human or cynomolgus GPC3 starting at 40 nM, 20 nM, 10 nM, or 5 nM depending on the antibody, with a blank buffer control were injected at 20 μL/min for 180s of contact time, followed by 180 s dissociation phase, resulting in sensorgrams with a buffer blank reference. The anti-Fc surface was regenerated to prepare for the next injection cycle by one pulse of 10 mM glycine/HCl pH 1.5 for 120 s at 40 μL/min. Blank-subtracted sensorgrams were analyzed and fit to the 1:1 Langmuir binding model using Biacore™ T200 Evaluation Software v3.2.

Assay [2] addresses T2, recombinant human GPC3 (glypican-3) (human, UniProt P51654 25-559).
T2 construct: also called huGPC3; hGPC3
In words: SPR (Biacore T200), antibody captured by anti-Fc, GPC3 injected. For orientation: In SPR one partner is held on a chip, and binding of the other changes the refractive index at the surface.
Experimental: as §1, §2

Assay [3] deals with T2, recombinant human GPC3 (glypican-3). In words: SPR (Biacore T200), antibody captured by anti-Fc, GPC3 injected, single-cycle kinetics, 1:1 fit; average.
Experimental: as §1, §2
Assay [4] deals with T1, recombinant cynomolgus GPC3 (glypican-3). The assay is described as above.
Experimental: as §1, §2

B1: v40207, H18L6_LC_G34K mAb (antibody, human IgG1, kappa, V domains shown)
VH: QVQLVQSGAEVKKPGSSVKVSCKASGYTFTDYEMHWVKQAPGHGLEWIGAIDPETGDTAYNQKFKGKATLTADTSTSTAYMELSSLRSEDTAVYYCTRYFSFAYWGQGTLVTVSS
VL: EIVLTQSPATLSLSPGERATISCRSSQSLRHSNKNTYLQWYQQKPGQAPRLLIYKVSNRFSGVPARFSGSGSGTDFTLTISSLEPEDFAVYFCYQSKHVPYTFGGGTKVEIKR
Take B1: the “Kd Fold difference (hu/cyno)” value in assay [1] was 1.58 fold. For the same molecule, the “Avg % binding huGPC3 (RU observed/theoretical)” value in assay [2] amounted to 42.2%. For the same molecule, the Kd (usually the constant that tells how readily two partners part at equilibrium) in assay [3] amounted to 11.5 nM; in assay [4], 7.29 nM.

B2: v40210, H18L6_LC_G34S mAb (antibody, human IgG1, kappa, V domains shown)
VH: QVQLVQSGAEVKKPGSSVKVSCKASGYTFTDYEMHWVKQAPGHGLEWIGAIDPETGDTAYNQKFKGKATLTADTSTSTAYMELSSLRSEDTAVYYCTRYFSFAYWGQGTLVTVSS
VL: EIVLTQSPATLSLSPGERATISCRSSQSLRHSNSNTYLQWYQQKPGQAPRLLIYKVSNRFSGVPARFSGSGSGTDFTLTISSLEPEDFAVYFCYQSKHVPYTFGGGTKVEIKR
notes: no number given for this variant
On to B2, for which, in assay [1], the “Kd Fold difference (hu/cyno)” value amounted to 1.56 fold. The “Avg % binding huGPC3 (RU observed/theoretical)” value in assay [2] is 42.8%. In addition, the figures for the Kd in assay [3] and in assay [4] were 10.3 nM and 6.58 nM, respectively.

B3: v40220, H18L6_LC_N33Q mAb (antibody, human IgG1, kappa, V domains shown)
VH: QVQLVQSGAEVKKPGSSVKVSCKASGYTFTDYEMHWVKQAPGHGLEWIGAIDPETGDTAYNQKFKGKATLTADTSTSTAYMELSSLRSEDTAVYYCTRYFSFAYWGQGTLVTVSS
VL: EIVLTQSPATLSLSPGERATISCRSSQSLRHSQGNTYLQWYQQKPGQAPRLLIYKVSNRFSGVPARFSGSGSGTDFTLTISSLEPEDFAVYFCYQSKHVPYTFGGGTKVEIKR
notes: as for B2
On to B3, for which the “Kd Fold difference (hu/cyno)” value in assay [1] came to 1.12 fold. Also, the “Avg % binding huGPC3 (RU observed/theoretical)” value in assay [2] is 16.1%. For the same molecule, the dissociation constant (Kd) was found to be 17.5 nM in assay [3] and 15.7 nM in assay [4].

B4: v40217, H18L6_LC_N33K mAb (antibody, human IgG1, kappa, V domains shown)
VH: QVQLVQSGAEVKKPGSSVKVSCKASGYTFTDYEMHWVKQAPGHGLEWIGAIDPETGDTAYNQKFKGKATLTADTSTSTAYMELSSLRSEDTAVYYCTRYFSFAYWGQGTLVTVSS
VL: EIVLTQSPATLSLSPGERATISCRSSQSLRHSKGNTYLQWYQQKPGQAPRLLIYKVSNRFSGVPARFSGSGSGTDFTLTISSLEPEDFAVYFCYQSKHVPYTFGGGTKVEIKR
notes: as for B2
With B4, in assay [1], the “Kd Fold difference (hu/cyno)” value came out at 1.3 fold. For the same molecule, the “Avg % binding huGPC3 (RU observed/theoretical)” value in assay [2] stood at 15.5%. Also, the values for the Kd in assay [3] and in assay [4] were 18.2 nM and 14 nM, respectively.

B5: v40218, H18L6_LC_N33H mAb (antibody, human IgG1, kappa, V domains shown)
VH: QVQLVQSGAEVKKPGSSVKVSCKASGYTFTDYEMHWVKQAPGHGLEWIGAIDPETGDTAYNQKFKGKATLTADTSTSTAYMELSSLRSEDTAVYYCTRYFSFAYWGQGTLVTVSS
VL: EIVLTQSPATLSLSPGERATISCRSSQSLRHSHGNTYLQWYQQKPGQAPRLLIYKVSNRFSGVPARFSGSGSGTDFTLTISSLEPEDFAVYFCYQSKHVPYTFGGGTKVEIKR
notes: as for B2
As to B5, in assay [1], the “Kd Fold difference (hu/cyno)” value worked out at 2.1 fold. Moreover, the “Avg % binding huGPC3 (RU observed/theoretical)” value in assay [2] is 15.6%. The Kd was 20.1 nM in assay [3] and 9.57 nM in assay [4].

B6: v40212, H18L6_LC_G34A mAb (antibody, human IgG1, kappa, V domains shown)
VH: QVQLVQSGAEVKKPGSSVKVSCKASGYTFTDYEMHWVKQAPGHGLEWIGAIDPETGDTAYNQKFKGKATLTADTSTSTAYMELSSLRSEDTAVYYCTRYFSFAYWGQGTLVTVSS
VL: EIVLTQSPATLSLSPGERATISCRSSQSLRHSNANTYLQWYQQKPGQAPRLLIYKVSNRFSGVPARFSGSGSGTDFTLTISSLEPEDFAVYFCYQSKHVPYTFGGGTKVEIKR
notes: as for B2
In the case of B6, the “Kd Fold difference (hu/cyno)” value in assay [1] worked out at 1.61 fold. Besides, in assay [2], the “Avg % binding huGPC3 (RU observed/theoretical)” value was 42.5%. Moreover, the Kd in assay [3] is 12.5 nM; in assay [4] it was 7.78 nM.

B7: v40216, H18L6_LC_N33R mAb (antibody, human IgG1, kappa, V domains shown)
VH: QVQLVQSGAEVKKPGSSVKVSCKASGYTFTDYEMHWVKQAPGHGLEWIGAIDPETGDTAYNQKFKGKATLTADTSTSTAYMELSSLRSEDTAVYYCTRYFSFAYWGQGTLVTVSS
VL: EIVLTQSPATLSLSPGERATISCRSSQSLRHSRGNTYLQWYQQKPGQAPRLLIYKVSNRFSGVPARFSGSGSGTDFTLTISSLEPEDFAVYFCYQSKHVPYTFGGGTKVEIKR
notes: as for B2
In the case of B7, the “Kd Fold difference (hu/cyno)” value in assay [1] was 1.82 fold. Besides, the “Avg % binding huGPC3 (RU observed/theoretical)” value in assay [2] stood at 15.8%. The Kd was 20.1 nM in assay [3] and 11.1 nM in assay [4].

B8: v40215, H18L6_LC_N33V mAb (antibody, human IgG1, kappa, V domains shown)
VH: QVQLVQSGAEVKKPGSSVKVSCKASGYTFTDYEMHWVKQAPGHGLEWIGAIDPETGDTAYNQKFKGKATLTADTSTSTAYMELSSLRSEDTAVYYCTRYFSFAYWGQGTLVTVSS
VL: EIVLTQSPATLSLSPGERATISCRSSQSLRHSVGNTYLQWYQQKPGQAPRLLIYKVSNRFSGVPARFSGSGSGTDFTLTISSLEPEDFAVYFCYQSKHVPYTFGGGTKVEIKR
notes: as for B2
Take B8: in assay [1], the “Kd Fold difference (hu/cyno)” value was 1.27 fold. Also, the “Avg % binding huGPC3 (RU observed/theoretical)” value in assay [2] is 17.5%. Moreover, the Kd in assay [3] was determined as 22.5 nM; in assay [4] it was 17.8 nM.

B9: v40221, H18L6_LC_N33S mAb (antibody, human IgG1, kappa, V domains shown)
VH: QVQLVQSGAEVKKPGSSVKVSCKASGYTFTDYEMHWVKQAPGHGLEWIGAIDPETGDTAYNQKFKGKATLTADTSTSTAYMELSSLRSEDTAVYYCTRYFSFAYWGQGTLVTVSS
VL: EIVLTQSPATLSLSPGERATISCRSSQSLRHSSGNTYLQWYQQKPGQAPRLLIYKVSNRFSGVPARFSGSGSGTDFTLTISSLEPEDFAVYFCYQSKHVPYTFGGGTKVEIKR
notes: as for B2
With B9, the “Kd Fold difference (hu/cyno)” value in assay [1] was determined as 1.24 fold. The “Avg % binding huGPC3 (RU observed/theoretical)” value in assay [2] turned out to be 18%. Further, the Kd was determined as 19.5 nM in assay [3] and 15.8 nM in assay [4].

B10: v40211, H18L6_LC_G34V mAb (antibody, human IgG1, kappa, V domains shown)
VH: QVQLVQSGAEVKKPGSSVKVSCKASGYTFTDYEMHWVKQAPGHGLEWIGAIDPETGDTAYNQKFKGKATLTADTSTSTAYMELSSLRSEDTAVYYCTRYFSFAYWGQGTLVTVSS
VL: EIVLTQSPATLSLSPGERATISCRSSQSLRHSNVNTYLQWYQQKPGQAPRLLIYKVSNRFSGVPARFSGSGSGTDFTLTISSLEPEDFAVYFCYQSKHVPYTFGGGTKVEIKR
notes: as for B2
Turning to B10, in assay [1], the “Kd Fold difference (hu/cyno)” value stood at 1.13 fold. The “Avg % binding huGPC3 (RU observed/theoretical)” value in assay [2] stood at 23.4%. The Kd in assay [3] was 21 nM; in assay [4], 18.5 nM.

B11: v40213, H18L6_LC_N33E mAb (antibody, human IgG1, kappa, V domains shown)
VH: QVQLVQSGAEVKKPGSSVKVSCKASGYTFTDYEMHWVKQAPGHGLEWIGAIDPETGDTAYNQKFKGKATLTADTSTSTAYMELSSLRSEDTAVYYCTRYFSFAYWGQGTLVTVSS
VL: EIVLTQSPATLSLSPGERATISCRSSQSLRHSEGNTYLQWYQQKPGQAPRLLIYKVSNRFSGVPARFSGSGSGTDFTLTISSLEPEDFAVYFCYQSKHVPYTFGGGTKVEIKR
notes: as for B2
On to B11, for which the “Kd Fold difference (hu/cyno)” value in assay [1] worked out at 1.37 fold. Besides, the “Avg % binding huGPC3 (RU observed/theoretical)” value in assay [2] was 14.9%. Besides, the Kd in assay [3] stood at 22.7 nM; in assay [4], 16.6 nM.

B12: v40219, H18L6_LC_N33A mAb (antibody, human IgG1, kappa, V domains shown)
VH: QVQLVQSGAEVKKPGSSVKVSCKASGYTFTDYEMHWVKQAPGHGLEWIGAIDPETGDTAYNQKFKGKATLTADTSTSTAYMELSSLRSEDTAVYYCTRYFSFAYWGQGTLVTVSS
VL: EIVLTQSPATLSLSPGERATISCRSSQSLRHSAGNTYLQWYQQKPGQAPRLLIYKVSNRFSGVPARFSGSGSGTDFTLTISSLEPEDFAVYFCYQSKHVPYTFGGGTKVEIKR
notes: as for B2
Turning to B12, the “Kd Fold difference (hu/cyno)” value in assay [1] is 1.77 fold. Also, the “Avg % binding huGPC3 (RU observed/theoretical)” value in assay [2] is 17.4%. Besides, the Kd is 18.3 nM in assay [3] and 10.4 nM in assay [4].

B13: v40208, H18L6_LC_G34Q mAb (antibody, human IgG1, kappa, V domains shown)
VH: QVQLVQSGAEVKKPGSSVKVSCKASGYTFTDYEMHWVKQAPGHGLEWIGAIDPETGDTAYNQKFKGKATLTADTSTSTAYMELSSLRSEDTAVYYCTRYFSFAYWGQGTLVTVSS
VL: EIVLTQSPATLSLSPGERATISCRSSQSLRHSNQNTYLQWYQQKPGQAPRLLIYKVSNRFSGVPARFSGSGSGTDFTLTISSLEPEDFAVYFCYQSKHVPYTFGGGTKVEIKR
Consider B13, for which the “Kd Fold difference (hu/cyno)” value in assay [1] came to 1.48 fold. Further, the “Avg % binding huGPC3 (RU observed/theoretical)” value in assay [2] is 46.3%. The Kd in assay [3] was determined as 10.6 nM; in assay [4], 7.18 nM.

B14: v40214, H18L6_LC_N33T mAb (antibody, human IgG1, kappa, V domains shown)
VH: QVQLVQSGAEVKKPGSSVKVSCKASGYTFTDYEMHWVKQAPGHGLEWIGAIDPETGDTAYNQKFKGKATLTADTSTSTAYMELSSLRSEDTAVYYCTRYFSFAYWGQGTLVTVSS
VL: EIVLTQSPATLSLSPGERATISCRSSQSLRHSTGNTYLQWYQQKPGQAPRLLIYKVSNRFSGVPARFSGSGSGTDFTLTISSLEPEDFAVYFCYQSKHVPYTFGGGTKVEIKR
notes: as for B2
Take B14: in assay [1], the “Kd Fold difference (hu/cyno)” value worked out at 1.21 fold. In addition, the “Avg % binding huGPC3 (RU observed/theoretical)” value in assay [2] turned out to be 21.3%. In addition, the values for the Kd in assay [3] and in assay [4] were 19.9 nM and 16.4 nM, respectively.

B15: v40209, H18L6_LC_G34T mAb (antibody, human IgG1, kappa, V domains shown)
VH: QVQLVQSGAEVKKPGSSVKVSCKASGYTFTDYEMHWVKQAPGHGLEWIGAIDPETGDTAYNQKFKGKATLTADTSTSTAYMELSSLRSEDTAVYYCTRYFSFAYWGQGTLVTVSS
VL: EIVLTQSPATLSLSPGERATISCRSSQSLRHSNTNTYLQWYQQKPGQAPRLLIYKVSNRFSGVPARFSGSGSGTDFTLTISSLEPEDFAVYFCYQSKHVPYTFGGGTKVEIKR
notes: as for B2
B15: the “Kd Fold difference (hu/cyno)” value in assay [1] is 1.53 fold. For the same molecule, in assay [2], the “Avg % binding huGPC3 (RU observed/theoretical)” value worked out at 43.6%. For the same molecule, the Kd in assay [3] turned out to be 11.3 nM; in assay [4], 7.43 nM.
